Earlier results as cited in patent US20230416704A1, “LACTONASE AND STABILIZED MUTANTS THEREOF FOR TREATING FUNGAL INFECTIONS IN PLANTS” (MIGAL GALILEE RESEARCH INSTITUTE LTD., priority 2020, published 2023).

Conditions: as shown in WO 2020/255131; cited from earlier work

B1: H172Y: M. tuberculosis phosphotriesterase-like lactonase (PPH) with H172 substituted by tyrosine (protein)
chain: MISEFPELNTARGPIDTADLGVTLMHEHVFIMTTEIAQNYPEAWGDEDKRVAGAIARLGELKARGVDTIVDLTVIGLGRYIPRIARVAAATELNIVVATGLYTYNDVPFYFHYLGPGAQLDGPEIMTDMFVRDIEHGIADTGIKAGILKCATDEPGLTPGVERVLRAVAQAYKRTGAPISTHTHAGLRRGLDQQRIFAEEGVDLSRVVIGHCGDSTDVGYLEELIAAGSYLGMDRFGVDVISPFQDRVNIVARMCERGHADKMVLSHDACCYFDALPEELVPVAMPNWHYLHIHNDVIPALKQHGVTDEQLHTMLVDNPRRIFERQGGYQ
temperature of 50% residual activity: about 65 °C
